The source of these data is patent publication US20250129148A1 (ONCOONE RESEARCH AND DEVELOPMENT, published 2025).

The chains are these.
B1: C0132 (Fc silenced anti-oxMIF x anti-HSG bispecific antibody, Fab/scFv-Fc) (bispecific antibody, human IgG1, kappa, L234A L235A)
heavy: not shown
chain: EVQLVESGGDLVKPGGSLKLSCAASGFTFSIYTMSWLRQTPGKGLEWVATLSGDGDDIYYPDSVKGRFTISRDNAKNSLYLQMNSLRAEDTALYYCARVRLGDWDFDVWGQGTTVSVSSGGSGGSGGSGGSGGSDIVMTQSPSSLAVSPGERVTLTCKSSQSLFNSRTRKNYLGWYQQKPGQSPKLLIYWASTRESGVPDRFSGSGSGTDFTLTINSLQAEDVAVYYCTQVYYLCTFGAGTKLELKGGGGSDKTHTCPPCPAPEAAGGPSVFLFPPKPKDTLMISRTPEVTCVVVDVSHEDPEVKFNWYVDGVEVHNAKTKPREEQYNSTYRVVSVLTVLHQDWLNGKEYKCKVSNKALPAPIEKTISKAKGQPREPQVCTLPPSRDELTKNQVSLSCAVKGFYPSDIAVEWESNGQPENNYKTTPPVLDSDGSFFLVSKLTVDKSRWQQGNVFSCSVMHEALHNHYTQKSLSLSPG
light: DIQMTQSPSSLSASVGDRVTITCRSSQRIMTYLNWYQQKPGKAPKLLIYVGSHSQSGVPSRFRGSGSETDFTLTISGLQPEDSATYYCQQSFFTPLTFGGGTKVEIKRTVAAPSVFIFPPSDEQLKSGTASVVCLLNNFYPREAKVQWKVDNALQSGNSQESVTEQDSKDSTYSLSSTLTLSKADYEKHKVYACEVTHQGLSSPVTKSFNRGEC
notes: One anti-oxMIF arm only; also called bsMab C0132
B2: C0133 (Fc silenced anti-oxMIF x anti-HSG bispecific antibody, Fab/Fab-scFv-Fc) (bispecific antibody, human IgG1, kappa, L234A L235A)
heavy: not shown
chain: EVQLQESGGGLVQPGGSLRLSCAASGFTFSIYSMNWVRQAPGKGLEWVSSIGSSGGTTYYADSVKGRFTISRDNSKNTLYLQMNSLRAEDTAVYYCAGSQYLYGMDVWGQGTTVTVSSASTKGPSVFPLAPSSKSTSGGTAALGCLVKDYFPEPVTVSWNSGALTSGVHTFPAVLQSSGLYSLSSVVTVPSSSLGTQTYICNVNHKPSNTKVDKKVEPKSCGGGGSGGGGSEVQLVESGGDLVKPGGSLKLSCAASGFTFSIYTMSWLRQTPGKGLEWVATLSGDGDDIYYPDSVKGRFTISRDNAKNSLYLQMNSLRAEDTALYYCARVRLGDWDFDVWGQGTTVSVSSGGSGGSGGSGGSGGSDIVMTQSPSSLAVSPGERVTLTCKSSQSLFNSRTRKNYLGWYQQKPGQSPKLLIYWASTRESGVPDRFSGSGSGTDFTLTINSLQAEDVAVYYCTQVYYLCTFGAGTKLELKGGGGSGGGGSKTHTCPPCPAPEAAGGPSVFLFPPKPKDTLMISRTPEVTCVVVDVSHEDPEVKFNWYVDGVEVHNAKTKPREEQYNSTYRVVSVLTVLHQDWLNGKEYKCKVSNKALPAPIEKTISKAKGQPREPQVCTLPPSRDELTKNQVSLSCAVKGFYPSDIAVEWESNGQPENNYKTTPPVLDSDGSFFLVSKLTVDKSRWQQGNVFSCSVMHEALHNHYTQKSLSLSPG
light: B1 light
notes: also called bsMab C0133
B3: C0008 (control/reference anti-oxMIF antibody) (antibody, human IgG1, kappa, V domains shown)
VH: EVQLLESGGGLVQPGGSLRLSCAASGFTFSIYSMNWVRQAPGKGLEWVSSIGSSGGTTYYADSVKGRFTISRDNSKNTLYLQMNSLRAEDTAVYYCAGSQWLYGMDVWGQGTTVTVSS
VL: DIQMTQSPSSLSASVGDRVTITCRSSQRIMTYLNWYQQKPGKAPKLLIFVASHSQSGVPSRFRGSGSETDFTLTISGLQPEDSATYYCQQSFWTPLTFGGGTKVEIKR
notes: Human IgG1 with wt Fc; also called control antibody
B4: C0118 (Fc silenced anti-oxMIF antibody) (antibody, human IgG1, kappa, L234A L235A, V domains shown)
VH: B3 VH with L5Q, W101Y
VL: B3 VL with M30L, F49Y, A51G, P80S, W93F
B5: C0115 (Fc silenced anti-oxMIF antibody) (antibody, human IgG1, kappa, L234A L235A, V domains shown)
VH: B3 VH with L5Q, W101Y
VL: B3 VL with F49Y, A51G, W93F

Residue numbers refer to the chain shown, from its start.

Usually EC50 stands for the concentration giving half of the maximal effect.

For one experiment, the target named is T1, oxMIF (recombinant human MIF immobilized into ELISA plates, transforming MIF to oxMIF) (human, UniProt P14174 2-115).
T1 construct: Oxidised conformational isoform produced by coating the plate at 1 ug/ml in PBS overnight; also called immobilized MIF (oxMIF); immobilized oxMIF
T1 sequence (P14174 2-115 limits assumed): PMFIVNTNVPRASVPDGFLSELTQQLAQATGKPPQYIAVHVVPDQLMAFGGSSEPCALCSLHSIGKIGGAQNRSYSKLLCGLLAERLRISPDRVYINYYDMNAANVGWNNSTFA
Briefly: ELISA on immobilized MIF (oxMIF), 4-parameter fit. As to the method:
(§1) Recombinant human MIF diluted in PBS at 1 μg/ml was immobilized into ELISA plates overnight at 4° C. (transforming MIF to oxMIF according to Thiele et al., 2015). After blocking, serial dilutions of anti-oxMIF antibodies were added to the plates. Finally, bound antibodies were detected using a Goat anti-human IgG (Fc)-HRP conjugate and tetramethylbenzidine (TMB) as substrate. The chromogenic reaction was stopped with 3M H₂SO₄ and OD was measured at 450 nm. Data from different experiments were normalized to the maximal OD of the anti-oxMIF antibody C0008 (=100%) of the respective experiment and EC₅₀ values were determined by 4-parameter fit using GraphPad Prism (and the mean+/−SEM of two experiments is shown).
Materials and Methods: Recombinant human MIF diluted in PBS at 1 μg/ml was immobilized into ELISA plates overnight at 4° C. (transforming MIF to oxMIF according to Thiele et al., 2015). After blocking, serial dilutions of antibodies were added to the plates, and ELISA was performed as described in the Example 3.
Background: ELISA stands for enzyme-linked immunosorbent assay.
For B1, the EC50 was 2.51 nM. Same read-out and setting: under B2 stands 0.242 nM; under B3, 0.158 nM.

The target of the next experiment is T1, oxMIF (recombinant human MIF …). Briefly: ELISA on immobilized MIF (oxMIF); EC50 of 4-parameter fit given as apparent KD. As to the method:
as §1
Anti-oxMIF antibodies were detected by an anti-human-IgG (Fc)-HRP conjugate, C0008 was used as reference antibody. EC₅₀ values were determined by sigmoidal, 4-parameter equation using GraphPad Prism (mean+/−SEM of two experiments is shown)
B3: the Kd came out at 0.19 nM. On the same count and under the same terms, for B4 the value was 0.26 nM. The same measure, in the same setting: for B5 the value was 0.28 nM.
